# Measurements: patent US8357523B2, “Beta-glucosidase variant enzymes and related polynucleotides” (Codexis, Inc., priority 2009, dated 2013)
# Residue numbers refer to the chain shown, from its start.
# B1: 39 (protein)
# chain: STAIAQEGAAPAAILHPEKWPRPATQRLIDPAVEKRVDALLKQLSVEEKVGQVIQGDIGTITPEDLRKYPLGSILAGGNSGPNGDDRAPPKEWLDLADAFYRVSLEKRPGHTPIPVLFGIDAVHGHGNIGSATIFPHNIALGQTHDPELLRRIGEVTAVEMAATGIDWTFAPALSVVRDDRWGRTYEGFSEDPEIVAAYSAAIVEGVQGKFGSKDFMAPGRIVASAKHFLADGGTDQGRDQGDARISEDELIRIHNAGYPPAIDAGVLTVMASFSSWQGIKHHGHKQLLTDVLKGQMGFNGFIVGDWNAHDQVPGCTKFNCPTSLIAGLDMYMAADSWKQLYENTLAQVKDGTIPMARLDDAVRRILRVKVLAGLFEKPAPKDRPGLPGLETLGSPEHRAVGREAVRKSLVLLKNDKGTLPLSPKARVLVAGDGADNIGKQSGGWTISWQGTGNRNDEFPGATSILGGIRDAVADAGGSVEFDVAGQYKTKPDVAIVVFGEEPYAEFQGDVETLEYQPDQKQDLALLKKLKDQGIPVVAVFLSGRPMWVNPELNASDAFVAAWLPGTEGGGVADVLFTDKAGKVQHDFAGKLSYSWPRTAAQTTVNRGDADYNPLFAYGYGLTYKDKSKVGTLPEESGVPAEARQNAGIYFRAGALRLPGRFL
# B2: 41 (protein)
# chain: B1 chain with Q143A, S225C
# B3: 53 (protein)
# chain: B1 chain with Q143A, I153T
# B4: 40 (protein)
# chain: B1 chain with Q143A, A173C
# B5: 58 (protein)
# chain: B1 chain with Q143A, E155M
# B6: 69 (protein)
# chain: B1 chain with Q143A, P219T
# B7: 45 (protein)
# chain: B1 chain with Q143A, Q487N
# B8: 61 (protein)
# chain: B1 chain with Q143A, E155A
# B9: 56 (protein)
# chain: B1 chain with Q143A, S225F
# B10: 73a (protein)
# chain: B1 chain with T60Y, Q143A
# B11: 46 (protein)
# chain: B1 chain with Q143A, L387R
# B12: 59 (protein)
# chain: B1 chain with Q143A, E155Q
# B13: 70 (protein)
# chain: B1 chain with Q143A, P219L
# B14: 57 (protein)
# chain: B1 chain with Q143A, I222C
# B15: 71 (protein)
# chain: B1 chain with Q143A, A202L
# B16: 67 (protein)
# chain: B1 chain with Q143A, P219C
# B17: 49 (protein)
# chain: B1 chain with Q143A, Q487D
# B18: 64 (protein)
# chain: B1 chain with Q143A, A162V
# B19: 42 (protein)
# chain: B1 chain with Q143A, I222A
# B20: 63 (protein)
# chain: B1 chain with Q143A, R151W
# B21: 73 (protein)
# chain: B1 chain with Q143A, I222V
# B22: 72 (protein)
# chain: B1 chain with V46F, Q143A, I222A
# B23: 65 (protein)
# chain: B1 chain with Q143A, P219Q
# B24: 43 (protein)
# chain: B1 chain with Q143A, G467Q
# B25: 52 (protein)
# chain: B1 chain with L141I, Q143A
# B26: 48 (protein)
# chain: B1 chain with N79D, Q143A
# B27: 51 (protein)
# chain: B1 chain with Q143A, D519G
# B28: 54 (protein)
# chain: B1 chain with Q143A, L663Q
# B29: 60 (protein)
# chain: B1 chain with Q143A, E155K
# B30: 47 (protein)
# chain: B1 chain with Q143A, D475K
# B31: 50 (protein)
# chain: B1 chain with Q143A, K629C
# B32: 44 (protein)
# chain: B1 chain with Q143A, F482Y
# B33: 66 (protein)
# chain: B1 chain with Q143A, P219E
# B34: 55 (protein)
# chain: B1 chain with Q143A, S225T
# B35: 68 (protein)
# chain: B1 chain with Q143A, P219I
# B36: 62 (protein)
# chain: B1 chain with Q143A, E155W
# B37: 73b (protein)
# chain: B1 chain with Q143A, A202S
# Assay: High throughput cellobiose assay: fold improvement in cellobiase activity of CelA variants over a control enzyme (Tables 2A-2D, 3, 5, 6, 7)
# Type: biochemical
# Details: 3.3 g/l cellobiose, 50° C. and pH 6.5; compared to native CelA (SEQ ID NO: 4)
row,Molecule,Fold improvement over wildtype CelA
1,B1,+ (+ = 1.1 to 2.0 fold improvement over native CelA (SEQ ID NO: 4))
2,B2,++ (++ = 2.1 to 2.6 fold improvement over native CelA (SEQ ID NO: 4))
3,B3,+ (+ = 1.1 to 2.0 fold improvement over native CelA (SEQ ID NO: 4))
4,B4,++ (++ = 2.1 to 2.6 fold improvement over native CelA (SEQ ID NO: 4))
5,B5,+ (+ = 1.1 to 2.0 fold improvement over native CelA (SEQ ID NO: 4))
6,B6,+ (+ = 1.1 to 2.0 fold improvement over native CelA (SEQ ID NO: 4))
7,B7,+ (+ = 1.1 to 2.0 fold improvement over native CelA (SEQ ID NO: 4))
8,B8,+ (+ = 1.1 to 2.0 fold improvement over native CelA (SEQ ID NO: 4))
9,B9,+ (+ = 1.1 to 2.0 fold improvement over native CelA (SEQ ID NO: 4))
10,B10,+ (+ = 1.1 to 2.0 fold improvement over native CelA (SEQ ID NO: 4))
11,B11,+ (+ = 1.1 to 2.0 fold improvement over native CelA (SEQ ID NO: 4))
12,B12,+ (+ = 1.1 to 2.0 fold improvement over native CelA (SEQ ID NO: 4))
13,B13,+ (+ = 1.1 to 2.0 fold improvement over native CelA (SEQ ID NO: 4))
14,B14,+ (+ = 1.1 to 2.0 fold improvement over native CelA (SEQ ID NO: 4))
15,B15,+ (+ = 1.1 to 2.0 fold improvement over native CelA (SEQ ID NO: 4))
16,B16,+ (+ = 1.1 to 2.0 fold improvement over native CelA (SEQ ID NO: 4))
17,B17,+ (+ = 1.1 to 2.0 fold improvement over native CelA (SEQ ID NO: 4))
18,B18,+ (+ = 1.1 to 2.0 fold improvement over native CelA (SEQ ID NO: 4))
19,B19,+ (+ = 1.1 to 2.0 fold improvement over native CelA (SEQ ID NO: 4))

row,Molecule,Fold improvement over wildtype CelA
1,B20,+ (+ = 1.1 to 2.0 fold improvement over native CelA (SEQ ID NO: 4))
2,B21,+ (+ = 1.1 to 2.0 fold improvement over native CelA (SEQ ID NO: 4))
3,B22,+ (+ = 1.1 to 2.0 fold improvement over native CelA (SEQ ID NO: 4))
4,B23,+ (+ = 1.1 to 2.0 fold improvement over native CelA (SEQ ID NO: 4))
5,B24,+ (+ = 1.1 to 2.0 fold improvement over native CelA (SEQ ID NO: 4))
6,B25,+ (+ = 1.1 to 2.0 fold improvement over native CelA (SEQ ID NO: 4))
7,B26,++ (++ = 2.1 to 2.6 fold improvement over native CelA (SEQ ID NO: 4))
8,B27,+ (+ = 1.1 to 2.0 fold improvement over native CelA (SEQ ID NO: 4))
9,B28,+ (+ = 1.1 to 2.0 fold improvement over native CelA (SEQ ID NO: 4))
10,B29,+ (+ = 1.1 to 2.0 fold improvement over native CelA (SEQ ID NO: 4))
11,B30,+ (+ = 1.1 to 2.0 fold improvement over native CelA (SEQ ID NO: 4))
12,B31,+ (+ = 1.1 to 2.0 fold improvement over native CelA (SEQ ID NO: 4))
13,B32,+ (+ = 1.1 to 2.0 fold improvement over native CelA (SEQ ID NO: 4))
14,B33,+ (+ = 1.1 to 2.0 fold improvement over native CelA (SEQ ID NO: 4))
15,B34,+ (+ = 1.1 to 2.0 fold improvement over native CelA (SEQ ID NO: 4))
16,B35,+ (+ = 1.1 to 2.0 fold improvement over native CelA (SEQ ID NO: 4))
17,B36,+ (+ = 1.1 to 2.0 fold improvement over native CelA (SEQ ID NO: 4))
18,B37,+ (+ = 1.1 to 2.0 fold improvement over native CelA (SEQ ID NO: 4))
